Positions of bridges follow the written chain, without caps; N, C: chain ends. No end group written: not given here.
How the values were obtained:
[1] = molecular target: T1, recombinant human BMP-2 (human, UniProt P12643 283-396); experiment: cell-based or functional assay
[2] = molecular target: T1, recombinant human BMP-2; experiment: SPR (Biacore X), rhBMP-2 on CM-5 chip, peptide at 1×10^-5 to 1×10^-4 M in solution
Procedure: Buffers and chips for the procedure were obtained from Biacore. […] This material was then attached to a CM-5 sensor chip using reagents and procedures supplied by the manufacturer. Running buffer was 10 mM HEPES, pH 7.4, 150 mM NaCl, 3 mM EDTA, 0.005% Surfactant P20. The peptide was dissolved in running buffer at concentrations ranging from 1×10⁻⁵ to 1×10⁻⁴ M. Flow rates from 5 to 50 μl/min and injection volumes of 20 to 100 μl were employed. The regeneration solution was […] glycine-HCl, pH 2.0.

T1 sequence (P12643 283-396 limits assumed): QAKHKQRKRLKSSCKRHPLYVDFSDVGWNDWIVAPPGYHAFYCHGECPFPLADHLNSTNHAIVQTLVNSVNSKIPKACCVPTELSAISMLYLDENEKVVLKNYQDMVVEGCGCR

retention of labeled rhBMP-2 on collagen sponges implanted in rodent muscle pouches (1, 3 and 7 days) [1]: ~2 fold
Kd [2]: 30 µM
B1: cyclized BMP Binding Peptide (BBP), bovine (peptide)
peptide: CRSTVRMSAEQVQNVWVRC
modifications: disulfide 1-19 (inferred)
notes: Synthetic 19 amino acid cyclic peptide, 2.1 kD; Reduction with β-mercaptoethanol decyclizes it, which implies a disulfide; also called cyclized BBP

— patent US20130303449A1 (University of California, published 2013)
